Measurements from PMC13544220, “Glycemic and bodyweight effects of GIPR coding variation reflect differences in surface expression and intrinsic functional impairment” (Science Advances, 2026).

Legend:
Assay type in all cases: cell-based, human
[1] = system: wild-type and variant SNAP-GIPR; test: Surface SNAP-GIPR expression (SNAP-tag labelling) in INS-1 cells; conditions: Fig 4G; Mean
How it was run: (§1)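 Read-out: whole-cell fluorescence of surface-only SNAP label (Alexa Fluor 647, 500 nM, 10 min, RT), wide-field 20X, several FOVs per well. Flat-field corrected, phase-contrast masked, nontransfected-well signal subtracted; normalized to experiment mean or wild-type.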

[2] = system: wild-type and variant SNAP-GIPR; test: Single-concentration GIP cAMP response by HTRF in AD293 cells; conditions: Fig S3F, HTRF, mean;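 further: ratio to experiment-wide average response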
Description: (§2) All variants were tested in parallel on each occasion to control for transfection efficiency differences between experiments.

[3] = system: wild-type and variant SNAP-GIPR; test: Constitutive and agonist-mediated internalization, reversible SNAP-tag labelling, INS-1 cells; set-up: key to Internalisation, GIP-only / Internalisation, Vehicle / Internalisation, +GIP: % internalization: residual fluorescence after Mesna vs pre-Mesna; conditions: Mean; for +GIP internalisation (100 nM) / GIP-specific internalisation (100 nM) / Constitutive internalisation (100 nM): Fig 4G; for +GIP internalisation (100 nM) / GIP-specific internalisation (100 nM): GIP 100 nM; for Internalisation, +GIP / Internalisation, GIP-only / Internalisation, Vehicle: Fig S4C, INS-1
How it was run: (§3)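 Percentage internalization calculated as specific SNAP fluorescence remaining after 10 min Mesna exposure, relative to pre-Mesna signal, imaged in TNE buffer (pH 8.6).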

[4] = system: wild-type and variant SNAP-GIPR; test: Single-concentration GIP cAMP response by HTRF in INS-1 cells; conditions: Fig S3E, mean
Description: as §2

[5] = system: wild-type and variant SNAP-GIPR; test: Constitutive and agonist-mediated internalization, reversible SNAP-tag labelling, AD293 cells; set-up: key to Internalisation, Vehicle / Internalisation, +GIP / Internalisation, GIP-only: % internalization: residual fluorescence after Mesna vs pre-Mesna; Surface expression: unit not given here; conditions: Mean; for +GIP internalisation (100 nM) / GIP-specific internalisation (100 nM) / Constitutive internalisation (100 nM) / Surface expression: Fig 4E; for +GIP internalisation (100 nM) / GIP-specific internalisation (100 nM): GIP 100 nM; for Internalisation, +GIP / Internalisation, GIP-only / Internalisation, Vehicle: Fig S4C, AD293
How it was run: as §3

[6] = system: wild-type and variant SNAP-GIPR; test: cADDis cAMP imaging in AD293 cells, ensemble, expression-matched and per decile; conditions: Fig S3F, cADDis, mean;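 further: Ensemble cells as % of IBMX/FSK response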
How it was run: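 AD293 cells were transfected with SNAP-GIPR constructs and cotransduced with the cADDis Green Up cAMP sensor, then labeled after 24 h with 500 nM SNAP-Surface Alexa Fluor 647. Per-cell cADDis intensity was tracked at 37°C in KRBH with 6 mM glucose and 0.1% BSA.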

[7] = system: wild-type and variant SNAP-GIPR; test: Surface SNAP-GIPR expression (SNAP-tag labelling) in AD293 cells; conditions: for AD293 Surface: Fig S3E, mean; for Surface SNAP-GIPR expression: sheet Fig 1C;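 on all read-outs here: scaled to the experimental average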
How it was run: as §1

[8] = column repeated, paired with cAMP 100 nM

B1: I403V (protein, UniProt P48546 22-466, looked up, variant I403V)
Gastric inhibitory …: RAETGSKGQTAGELYQRWERYRRECQETLAAAEPPSGLACNGSFDMYVCWDYAAPNATARASCPWYLPWHHHVAAGFVLRQCGSDGQWGLWRDHTQCENPEKNEAFLDQRLILERLQVMYTVGYSLSLATLLLALLILSLFRRLHCTRNYIHINLFTSFMLRAAAILSRDRLLPRPGPYLGDQALALWNQALAACRTAQIVTQYCVGANYTWLLVEGVYLHSLLVLVGGSEEGHFRYYLLLGWGAPALFVIPWVIVRYLYENTQCWERNEVKAIWWIIRTPILMTILINFLIFIRILGILLSKLRTRQMRCRDYRLRLARSTLTLVPLLGVHEVVFAPVTEEQARGALRFAKLGFEIFLSSFQGFLVSVLYCFINKEVQSEVRRGWHHCRLRRSLGEEQRQLPERAFRALPSGSGPGEVPTSRGLSSGTLPGPGNEASRELESYC
Surface expression [1]: 1.09
AD293 100 pM HTRF [2]: 1.267
AD293 100 nM HTRF [2]: 1.595
+GIP internalisation (100 nM) [3]: 0.5388
GIP-specific internalisation (100 nM) [3]: 0.1314
Constitutive internalisation (100 nM) [3]: 0.4074
Internalisation, +GIP [3]: 49.7833
Internalisation, GIP-only [3]: 12.345
Internalisation, Vehicle [3]: 37.4383
INS-1 cAMP (100 nM) [4]: 1.36
+GIP internalisation (100 nM) [5]: 0.6419
GIP-specific internalisation (100 nM) [5]: 0.176
Constitutive internalisation (100 nM) [5]: 0.4659
Surface expression [5]: 1.133
Internalisation, +GIP [5]: 57.0289
Internalisation, GIP-only [5]: 15.5744
Internalisation, Vehicle [5]: 41.4545
AD293 100 pM cADDis [6]: 32.3253
AD293 100 nM cADDis [6]: 38.62
AD293 Surface [7, 8]: 1.077
AD293 Surface ([7]; paired with cAMP 100 pM): 1.077
Surface SNAP-GIPR expression ([7]; replicate 1): 1.081
Surface SNAP-GIPR expression ([7]; replicate 2): 1.363
Surface SNAP-GIPR expression ([7]; replicate 3): 0.2202
Surface SNAP-GIPR expression ([7]; replicate 4): 1.549
Surface SNAP-GIPR expression ([7]; replicate 5): 1.258
Surface SNAP-GIPR expression ([7]; replicate 6): 1.264
Surface SNAP-GIPR expression ([7]; replicate 7): 0.985
Surface SNAP-GIPR expression ([7]; replicate 8): 0.9444
Surface SNAP-GIPR expression ([7]; replicate 9): 1.045
Surface SNAP-GIPR expression ([7]; replicate 10): 1.237
Surface SNAP-GIPR expression ([7]; replicate 11): 0.9384
Surface SNAP-GIPR expression ([7]; replicate 12): 0.958
Surface SNAP-GIPR expression ([7]; replicate 13): 1.387
Surface SNAP-GIPR expression ([7]; replicate 14): 1.061
Surface SNAP-GIPR expression ([7]; replicate 15): 1.05
Surface SNAP-GIPR expression ([7]; replicate 16): 0.9753
Surface SNAP-GIPR expression ([7]; replicate 17): 1.072
Surface SNAP-GIPR expression ([7]; replicate 18): 0.9656
Surface SNAP-GIPR expression ([7]; replicate 19): 0.8084
Surface SNAP-GIPR expression ([7]; replicate 20): 1.091
Surface SNAP-GIPR expression ([7]; replicate 21): 0.9955
Surface SNAP-GIPR expression ([7]; replicate 22): 1.089
Surface SNAP-GIPR expression ([7]; replicate 23): 1.06
Surface SNAP-GIPR expression ([7]; replicate 24): 1.048
Surface SNAP-GIPR expression ([7]; replicate 25): 0.9764
Surface SNAP-GIPR expression ([7]; replicate 26): 0.8875
Surface SNAP-GIPR expression ([7]; replicate 27): 0.9058
Surface SNAP-GIPR expression ([7]; replicate 28): 1.123
Surface SNAP-GIPR expression ([7]; replicate 29): 1.103
Surface SNAP-GIPR expression ([7]; replicate 30): 1.39
Surface SNAP-GIPR expression ([7]; replicate 31): 1.166
Surface SNAP-GIPR expression ([7]; replicate 32): 1.223
Surface SNAP-GIPR expression ([7]; replicate 33): 1.12
Surface SNAP-GIPR expression ([7]; replicate 34): 1.156
Surface SNAP-GIPR expression ([7]; replicate 35): 1.076
Surface SNAP-GIPR expression ([7]; replicate 36): 1.273
Surface SNAP-GIPR expression ([7]; replicate 37): 1.139
Surface SNAP-GIPR expression ([7]; replicate 38): 1.049
Surface SNAP-GIPR expression ([7]; replicate 39): 1.042
Surface SNAP-GIPR expression ([7]; replicate 40): 1.006
Surface SNAP-GIPR expression ([7]; replicate 41): 1.094

B2: R336P (protein, UniProt P48546 22-466, looked up, variant R336P)
Gastric inhibitory …: RAETGSKGQTAGELYQRWERYRRECQETLAAAEPPSGLACNGSFDMYVCWDYAAPNATARASCPWYLPWHHHVAAGFVLRQCGSDGQWGLWRDHTQCENPEKNEAFLDQRLILERLQVMYTVGYSLSLATLLLALLILSLFRRLHCTRNYIHINLFTSFMLRAAAILSRDRLLPRPGPYLGDQALALWNQALAACRTAQIVTQYCVGANYTWLLVEGVYLHSLLVLVGGSEEGHFRYYLLLGWGAPALFVIPWVIVRYLYENTQCWERNEVKAIWWIIRTPILMTILINFLIFIRILGILLSKLRTRQMRCRDYPLRLARSTLTLVPLLGVHEVVFAPVTEEQARGALRFAKLGFEIFLSSFQGFLVSVLYCFINKEVQSEIRRGWHHCRLRRSLGEEQRQLPERAFRALPSGSGPGEVPTSRGLSSGTLPGPGNEASRELESYC
Surface expression [1]: 0.9442
AD293 100 pM HTRF [2]: 1.285
AD293 100 nM HTRF [2]: 1.143
+GIP internalisation (100 nM) [3]: 0.578
GIP-specific internalisation (100 nM) [3]: 0.1817
Constitutive internalisation (100 nM) [3]: 0.3963
Internalisation, +GIP [3]: 55.395
Internalisation, GIP-only [3]: 16.7483
Internalisation, Vehicle [3]: 38.6467
INS-1 cAMP (100 nM) [4]: 0.7986
+GIP internalisation (100 nM) [5]: 0.6438
GIP-specific internalisation (100 nM) [5]: 0.1531
Constitutive internalisation (100 nM) [5]: 0.4907
Surface expression [5]: 1.092
Internalisation, +GIP [5]: 55.5681
Internalisation, GIP-only [5]: 13.0056
Internalisation, Vehicle [5]: 42.5625
AD293 100 pM cADDis [6]: 30.0491
AD293 100 nM cADDis [6]: 33.63
AD293 Surface [7, 8]: 0.9922
AD293 Surface ([7]; paired with cAMP 100 pM): 0.9922
Surface SNAP-GIPR expression ([7]; replicate 1): 1.065
Surface SNAP-GIPR expression ([7]; replicate 2): 0.5013
Surface SNAP-GIPR expression ([7]; replicate 3): 1.132
Surface SNAP-GIPR expression ([7]; replicate 4): 0.7089
Surface SNAP-GIPR expression ([7]; replicate 5): 1.372
Surface SNAP-GIPR expression ([7]; replicate 6): 0.9533
Surface SNAP-GIPR expression ([7]; replicate 7): 1.085
Surface SNAP-GIPR expression ([7]; replicate 8): 0.9069
Surface SNAP-GIPR expression ([7]; replicate 9): 0.9059
Surface SNAP-GIPR expression ([7]; replicate 10): 0.7148
Surface SNAP-GIPR expression ([7]; replicate 11): 1.055
Surface SNAP-GIPR expression ([7]; replicate 12): 1.013
Surface SNAP-GIPR expression ([7]; replicate 13): 0.7103
Surface SNAP-GIPR expression ([7]; replicate 14): 1.142
Surface SNAP-GIPR expression ([7]; replicate 15): 0.8074
Surface SNAP-GIPR expression ([7]; replicate 16): 0.9322
Surface SNAP-GIPR expression ([7]; replicate 17): 0.8667
Surface SNAP-GIPR expression ([7]; replicate 18): 1.004
Surface SNAP-GIPR expression ([7]; replicate 19): 0.9824
Surface SNAP-GIPR expression ([7]; replicate 20): 1.058
Surface SNAP-GIPR expression ([7]; replicate 21): 0.9727
Surface SNAP-GIPR expression ([7]; replicate 22): 0.8965
Surface SNAP-GIPR expression ([7]; replicate 23): 0.778
Surface SNAP-GIPR expression ([7]; replicate 24): 0.7544
Surface SNAP-GIPR expression ([7]; replicate 25): 1.062
Surface SNAP-GIPR expression ([7]; replicate 26): 1.025
Surface SNAP-GIPR expression ([7]; replicate 27): 0.9727
Surface SNAP-GIPR expression ([7]; replicate 28): 0.7869
Surface SNAP-GIPR expression ([7]; replicate 29): 1.148
Surface SNAP-GIPR expression ([7]; replicate 30): 1.341
Surface SNAP-GIPR expression ([7]; replicate 31): 1.222
Surface SNAP-GIPR expression ([7]; replicate 32): 1.042
Surface SNAP-GIPR expression ([7]; replicate 33): 1.006
Surface SNAP-GIPR expression ([7]; replicate 34): 0.7344
Surface SNAP-GIPR expression ([7]; replicate 35): 1.077
Surface SNAP-GIPR expression ([7]; replicate 36): 1.167
Surface SNAP-GIPR expression ([7]; replicate 37): 1.212
Surface SNAP-GIPR expression ([7]; replicate 38): 1.22
Surface SNAP-GIPR expression ([7]; replicate 39): 1.259
Surface SNAP-GIPR expression ([7]; replicate 40): 1.054
Surface SNAP-GIPR expression ([7]; replicate 41): 1.032
